We go through ten molecules from patent publication US20190338002A1 (Pieris, published 2019).

Common to all, as to test: SPR, 37 C, mutein captured, CGRP analyte
Background: In SPR one partner is held on a chip, and binding of the other changes the refractive index at the surface.

The target of test [1] is T1, human alpha CGRP (SEQ ID NO: 80) (human, not fully specified).
T1 construct: also called human αCGRP; hαCGRP
T1 peptide: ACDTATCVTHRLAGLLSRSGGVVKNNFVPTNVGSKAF
How it is done:
(§1) The Biotin CAPture Kit (GE Healthcare) was used to immobilize biotinylated lipocalin muteins to a chip surface. Muteins were biotinylated using standard NHS chemistry. Undiluted Biotin CAPture Reagent (streptavidin conjugated with ss-DNA oligo) was captured on a Sensor Chip CAP with the pre-immobilized complementary ss-DNA oligo. Thereafter, biotinylated muteins at 1 μg/mL were applied for 300 s at a flow rate of 5 μL/min.
(§2) CGRP species were applied in three concentrations of 30 nM, 3 nM and 0.3 nM at a flow rate of 30 μL/min or in a single concentration of 25 nM per cycle as shown in FIG. 2. The dilutions were injected with association times of 180 s and dissociation times of 5400 sec to obtain ka and kd information. Regeneration of the chip surface was achieved by injecting 6 M Guanidinium-HCl+0.25 M NaOH (120 s) with a flow rate of 10 μL/min. Injection of regeneration solutions was followed by an extra wash step with HBS-EP+(1×; BR-1006-69; GE Healthcare) running buffer and a stabilization period of 120 s.
(§3) The data were double-referenced by subtraction of the corresponding signals measured for the control channel (loaded with Biotin CAPture reagent only) and by subtraction of buffer injections from the binding responses. Association rate constant ka and dissociation rate constant kd for the binding reaction were determined using Biacore T200 Evaluation Software V2.0 for data processing and kinetic fitting. The data were globally fit with 1:1 binding model.

Test [2] deals with T2, human beta CGRP (SEQ ID NO: 81) (human, not fully specified).
T2 construct: also called human βCGRP; hβCGRP
T2 peptide: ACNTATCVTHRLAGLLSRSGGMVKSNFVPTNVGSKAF
As to the method: as §1, §2, §3

For test [3], the target named is T3, rat beta CGRP (SEQ ID NO: 83) (rat, not fully specified).
T3 construct: also called rat βCGRP; rat β-CGRP
T3 peptide: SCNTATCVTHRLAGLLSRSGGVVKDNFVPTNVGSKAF
How it is done: as §1, §2, §3

The target of test [4] is T4, rat alpha CGRP (SEQ ID NO: 82) (rat).
T4 construct: also called rat αCGRP; rat α-CGRP
T4 peptide: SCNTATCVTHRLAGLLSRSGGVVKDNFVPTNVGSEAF
As to the method:
as §1, §2, §3

B1: lipocalin mutein SEQ ID NO: 7 (designed binder)
chain: QDSTSDLIPAPPLSKVPLQQNFQDNQFHGKWYVVGWAGNTLLREDKDPIKMQATIYELKEDKSYNVTWVYFSEKRCNYHIETSVPGSQPGEFTLGTIKSYPGETSILVRVVSTNYNQHAMVFFKGVSQNREIFEITLYGRTKELTSELKENFIRFSKSLGLPENHIVFPVPIDQCIDGSAWSHPQFEK
notes: biotinylated by NHS chemistry for capture in SPR
By Kd is commonly meant the concentration at which binding is half-saturated. Read a high Kd as weaker binding. For orientation: koff means the first-order rate constant of dissociation. Lower therefore signals a long-lived complex. The term kon denotes a measure of how fast the partners come together. A lower kon goes with slower complex formation. Regarding B1, the Kd was determined as 0.067 nM in test [1], 0.036 nM in test [2], 0.091 nM in test [3] and 0.3 nM in test [4]. Moreover, the koff in test [1] came out at 0.000249 s⁻¹; in test [2], 0.000188 s⁻¹; in test [3] it was 0.000276 s⁻¹; in test [4] it was 0.000313 s⁻¹. For the same molecule, the kon in test [1] was found to be 3.74e+06 M⁻¹ s⁻¹; in test [2] it was 5.21e+06 M⁻¹ s⁻¹; in test [3], 3.04e+06 M⁻¹ s⁻¹; in test [4] it was 1.04e+06 M⁻¹ s⁻¹.

B2: lipocalin mutein SEQ ID NO: 12 (designed binder)
chain: QDSTSDLIPAPPLSKVPLQQNFQDNQFHGKWYVVGWAGNTLLREDKDPPKMQATIYELKEDRSYNVTWVYFSEKKCNYHIETSVPGSQPGEFTLGTIQSHPGETPILVRVVSTNYNQHAMVFFKGMGQNREIFEITLYGRTKELTSELKENFIRFSKSLGLPENHIVFPVPIDQCIDGSAWSHPQFEK
notes: as for B1
B2: the Kd in test [1] is 0.15 nM; in test [2], 0.095 nM; in test [3] it was 0.176 nM; in test [4], 0.45 nM. In addition, the koff stood at 0.000162 s⁻¹ in test [1], 0.000104 s⁻¹ in test [2], 0.000205 s⁻¹ in test [3] and 0.000299 s⁻¹ in test [4]. For the same molecule, the kon worked out at 1.08e+06 M⁻¹ s⁻¹ in test [1], 1.1e+06 M⁻¹ s⁻¹ in test [2], 1.17e+06 M⁻¹ s⁻¹ in test [3] and 661000 M⁻¹ s⁻¹ in test [4].

B3: lipocalin mutein SEQ ID NO: 9 (designed binder)
chain: QDSTSDLIPAPPLSKVPLQQNFQDNQFHGKWYVVGWAGNTLLREDKDPIKMQATIYELKEDKSYDVTWVYLSEKKCNYHIETSVPGSQPGEFTLGTIKSYPGETSILVRVVSTNYNQHAMVFFKGMSQNREIFEITLYGRTKELASELKENFIRFSKSLGLPENHIVFPVPIDQCIDGSAWSHPQFEK
notes: as for B1
In the case of B3, the Kd in test [1] came to 0.044 nM; in test [2], 0.027 nM; in test [3], 0.075 nM; in test [4] it was 0.26 nM. The dissociation rate constant (koff) in test [1] was 0.000257 s⁻¹; in test [2] it was 0.000181 s⁻¹; in test [3], 0.000275 s⁻¹; in test [4] it was 0.000318 s⁻¹. Further, the kon was determined as 5.88e+06 M⁻¹ s⁻¹ in test [1], 6.8e+06 M⁻¹ s⁻¹ in test [2], 3.68e+06 M⁻¹ s⁻¹ in test [3] and 1.22e+06 M⁻¹ s⁻¹ in test [4].

B4: lipocalin mutein SEQ ID NO: 8 (designed binder)
chain: QDSTSDLIPAPPLSKVPLQQNFQDNQFHGKWYVVGWAGNTLRREDKNPTKMQATIYELKEDKSYNVTWVYFSEKKCNYHIETSVPGSQPGEFTLGTIKSYPGETSILVRVVSTNYNQHAMVFFKGVSQNREIFEITLYGRTKELTSELKENFIRFSKSLGLPENHIVFPVPIDQCIDGSAWSHPQFEK
notes: as for B1
For B4, the Kd was determined as 0.288 nM in test [1], 0.143 nM in test [2], 0.349 nM in test [3] and 1.14 nM in test [4]. The off-rate constant (koff) in test [1] was 0.000595 s⁻¹; in test [2] it was 0.000529 s⁻¹; in test [3], 0.000636 s⁻¹; in test [4] it was 0.000837 s⁻¹. The kon in test [1] is 2.07e+06 M⁻¹ s⁻¹; in test [2], 3.7e+06 M⁻¹ s⁻¹; in test [3] it was 1.82e+06 M⁻¹ s⁻¹; in test [4], 734000 M⁻¹ s⁻¹.

B5: lipocalin mutein SEQ ID NO: 10 (designed binder)
chain: QDSTSDLIPAPPLSKVPLQQNFQDNQFHGKWYVVGWAGNTLLREDKNPTKMQATIYELKEDKSYNATWVYLSEKKCNYHIETSVPGSQPGEFTLGTTKSYPGETPILVRVVSTNYNQHAMVFFKGVSQNREIFEITLYGRTKELTSELKENFIRFSKSLGLPENHIVFPVPIDQCIDGSAWSHPQFEK
notes: as for B1
For the molecule B5, the dissociation constant Kd in test [1] is 0.163 nM; in test [2], 0.076 nM; in test [3] it was 0.206 nM; in test [4], 0.55 nM. In addition, the koff in test [1] was 0.000205 s⁻¹; in test [2], 0.000162 s⁻¹; in test [3] it was 0.000224 s⁻¹; in test [4] it was 0.000307 s⁻¹. In addition, the on-rate constant (kon) turned out to be 1.26e+06 M⁻¹ s⁻¹ in test [1], 2.14e+06 M⁻¹ s⁻¹ in test [2], 1.08e+06 M⁻¹ s⁻¹ in test [3] and 559000 M⁻¹ s⁻¹ in test [4].

B6: lipocalin mutein SEQ ID NO: 28 (designed binder)
chain: QDSTSDLIPAPPLSKVPLQQNFQDNQFHGKWYVVGWAGNTLLREDKDPIKMQAIIYELKEDRSYNVTWVYFSEKKCNYHIETFVPGSQPGEFTLGTIKSYPGETPILVRVMSTNYNQHAMVFFKGVNQNREIFEIILYGRTKELTNELKENFIRFSKSLGLPENHIVFPVPIDQCIDGSAWSHPQFEK
notes: as for B1
For B6, the dissociation constant (Kd) in test [1] was 0.031 nM; in test [2], 0.014 nM; in test [3] it was 0.032 nM; in test [4], 0.049 nM. In addition, the koff turned out to be 4.99e-05 s⁻¹ in test [1], 3.41e-05 s⁻¹ in test [2], 5.48e-05 s⁻¹ in test [3] and 6.88e-05 s⁻¹ in test [4]. Also, the on-rate (kon) is 1.59e+06 M⁻¹ s⁻¹ in test [1], 2.52e+06 M⁻¹ s⁻¹ in test [2], 1.72e+06 M⁻¹ s⁻¹ in test [3] and 1.41e+06 M⁻¹ s⁻¹ in test [4].

B7: lipocalin mutein SEQ ID NO: 13 (designed binder)
chain: QDSTSDLIPAPPLSKVPLQQNFQDNQFHGKWYVVGRAGNEELREDKDPQKMEATIYELKEDKSYNVTDVGFSEKKCIYVIHTFVPGSQPGEFTLGNIKSYPGVTSALVRVVSTNYNQHAMVFFKVVKQNRELFEITLYGRTKELTSELKENFIRFSKSLGLPENHIVFPVPIDQCIDGSAWSHPQFEK
notes: as for B1
For B7, the Kd in test [1] was found to be 0.075 nM; in test [2] it was 0.031 nM; in test [3] it was 0.111 nM; in test [4], 0.28 nM. For the same molecule, the off-rate constant (koff) is 0.000436 s⁻¹ in test [1], 0.000366 s⁻¹ in test [2], 0.00035 s⁻¹ in test [3] and 0.000525 s⁻¹ in test [4]. Also, the association rate constant (kon) in test [1] stood at 5.82e+06 M⁻¹ s⁻¹; in test [2] it was 1.18e+07 M⁻¹ s⁻¹; in test [3], 3.16e+06 M⁻¹ s⁻¹; in test [4], 1.85e+06 M⁻¹ s⁻¹.

B8: lipocalin mutein SEQ ID NO: 21 (designed binder)
chain: QDSTSDLIPAPPLSKVPLQQNFQDNQFHGKWYVVGRAGNDALREDKDPEKMEATIYELKEDKSYNVTDVGFVQKKCMYVIHTFVPGSQPGEFTLGNIKSYPGVTSALIRVVNTNYNQHAMVFVKLVKQNRELFEITLYGRTKELTSELKENFIRFSKSLGLPENHIVFPVPIDQCIDGSAWSHPQFEK
notes: as for B1
As for B8, the Kd amounted to 0.014 nM in test [1], 0.004 nM in test [2], 0.018 nM in test [3] and 0.053 nM in test [4]. For the same molecule, the dissociation rate constant (koff) in test [1] worked out at 1.71e-05 s⁻¹; in test [2], 8.74e-06 s⁻¹; in test [3] it was 2.36e-05 s⁻¹; in test [4] it was 3.7e-05 s⁻¹. In addition, the association rate constant (kon) in test [1] is 1.21e+06 M⁻¹ s⁻¹; in test [2] it was 2.36e+06 M⁻¹ s⁻¹; in test [3], 1.34e+06 M⁻¹ s⁻¹; in test [4] it was 703000 M⁻¹ s⁻¹.

B9: lipocalin mutein SEQ ID NO: 16 (designed binder)
chain: QDSTSDLIPAPPLSKVPLQQNFQDNQFHGKWYVVGRAGNDELREDKDPEKMEATIYELKEDKSYNVTDVGFVQKKCMYVIHTFVPGSQPGEFTLGNIKSYPGVTSGLVRVVSTNYNQHAMVFFKVVRQNRELFEITLYGRTKELTSELKENFIRFSKSLGLPENHIVFPVPIDQCIDGSAWSHPQFEK
notes: as for B1
With B9, the Kd in test [1] stood at 0.052 nM; in test [2] it was 0.036 nM; in test [3] it was 0.097 nM; in test [4], 0.28 nM. Moreover, the dissociation rate constant (koff) in test [1] came to 0.000259 s⁻¹; in test [2], 0.000364 s⁻¹; in test [3], 0.000229 s⁻¹; in test [4], 0.000398 s⁻¹. For the same molecule, the association rate constant (kon) in test [1] was 5.02e+06 M⁻¹ s⁻¹; in test [2] it was 1.01e+07 M⁻¹ s⁻¹; in test [3], 2.37e+06 M⁻¹ s⁻¹; in test [4], 1.41e+06 M⁻¹ s⁻¹.

B10: lipocalin mutein SEQ ID NO: 22 (designed binder)
chain: QDSTSDLIPAPPLSKVPLQQNFQDNQFHGKWYVVGRAGNDALREDKDPEKMEATIYELKEDKSYNVTDVGLVQKKCMYVIHTFVPGGQPGEFTLGNIKSYPGVTSALVRVVSTNYNQHAMVFVKLVKQNRELFEITLYGRTKELTSELKENFIRFSKSLGLPENHIVFPVPIDQCIDGSAWSHPQFEK
notes: as for B1
As for B10, the Kd in test [1] was determined as 0.009 nM; in test [2], 0.003 nM; in test [3], 0.013 nM; in test [4], 0.033 nM. Moreover, the off-rate (koff) in test [1] amounted to 1.56e-05 s⁻¹; in test [2], 9.32e-06 s⁻¹; in test [3], 2.02e-05 s⁻¹; in test [4] it was 3.05e-05 s⁻¹. Moreover, the on-rate (kon) in test [1] was 1.76e+06 M⁻¹ s⁻¹; in test [2], 2.7e+06 M⁻¹ s⁻¹; in test [3], 1.6e+06 M⁻¹ s⁻¹; in test [4], 931000 M⁻¹ s⁻¹.
